Experimental data as given in US20060239990A1, “Protein Arginine N-Methyltransferase 2 (PRMT-2)” (priority 2003, published 2006).

What was measured:
[1] = tested on: 293 cells; experiment: TNF-α-induced apoptosis in transfected 293 cells; assay type: cell-based, human; details: TNF-α 1000 U/ml 24 hours
Protocol: Apoptosis analysis. Apoptosis in PRMT-2-expressing 293 cells was analyzed as follows. Cells were seeded at 2.5×10^5 per well in 6 well plates. The next day, empty vector, mutant IκBα (S32A/S36A), RelA or PRMT-2 was co-transfected with CD2 expression vector. Twenty-four hours after transfection cells were stimulated with TNF-α (1000 U/ml) for 24 hours. Both floating and attached cells in each well were harvested by EDTA treatment. Cells were stained with APC-labeled anti-CD2 antibody (BD Bioscience) in SM buffer (PBS containing 2% FCS). After washing twice with PBS, cells were stained with FITC-labeled Annexin V and propidium iodide using Annexin V FITC Apoptosis Detection Kit (Oncogene), and analyzed by flow cytometry (FACS Caliber, BD Bioscience).

[2] = tested on: E2F1; experiment: E2F reporter assay (GAL4-E2F1 activator, luciferase); assay type: cell-based
Protocol: HeLa cells, U2OS cells, and Saos2 cells were seeded at a density of 5×10^4 per well in 24-well plates. Cells were transfected 24 hours later with the indicated plasmid and with 20 ng of pRL-TK (Promega) as an internal control to normalize transfection efficiency. The amount of CMV promoter in the transfection was kept constant using empty vector. Cells were harvested at 30 or 36 hour after transfection and luciferase activity was analyzed by Dual-Luciferase Reporter Assay System (Promega). Luciferase activity was measured as a ratio of Firefly to Renilla. To study endogenous E2F activity in MEFs, PRMT-2^+/+ or PRMT-2^−/− MEFs were seeded at a density of 3×10^5 per well in 6-well plates. Cells were transfected 24 hours later with 3 μg of E2F4B-Luc and 10 ng of pRL-TK plasmid. Cells were harvested at 36 hour after transfection and analyzed for luciferase activity as described above.

[3] = target: T1, RB (Homo sapiens, UniProt P06400); experiment: In vitro binding assay with GST-RB; details: S35-labeled in vitro translated protein
T1 construct: coding region of RB cDNA was subcloned into pGEX-6P (Amersham/Pharmacia) for generation of GST-RB; made in house
T1 sequence (P06400 1-928): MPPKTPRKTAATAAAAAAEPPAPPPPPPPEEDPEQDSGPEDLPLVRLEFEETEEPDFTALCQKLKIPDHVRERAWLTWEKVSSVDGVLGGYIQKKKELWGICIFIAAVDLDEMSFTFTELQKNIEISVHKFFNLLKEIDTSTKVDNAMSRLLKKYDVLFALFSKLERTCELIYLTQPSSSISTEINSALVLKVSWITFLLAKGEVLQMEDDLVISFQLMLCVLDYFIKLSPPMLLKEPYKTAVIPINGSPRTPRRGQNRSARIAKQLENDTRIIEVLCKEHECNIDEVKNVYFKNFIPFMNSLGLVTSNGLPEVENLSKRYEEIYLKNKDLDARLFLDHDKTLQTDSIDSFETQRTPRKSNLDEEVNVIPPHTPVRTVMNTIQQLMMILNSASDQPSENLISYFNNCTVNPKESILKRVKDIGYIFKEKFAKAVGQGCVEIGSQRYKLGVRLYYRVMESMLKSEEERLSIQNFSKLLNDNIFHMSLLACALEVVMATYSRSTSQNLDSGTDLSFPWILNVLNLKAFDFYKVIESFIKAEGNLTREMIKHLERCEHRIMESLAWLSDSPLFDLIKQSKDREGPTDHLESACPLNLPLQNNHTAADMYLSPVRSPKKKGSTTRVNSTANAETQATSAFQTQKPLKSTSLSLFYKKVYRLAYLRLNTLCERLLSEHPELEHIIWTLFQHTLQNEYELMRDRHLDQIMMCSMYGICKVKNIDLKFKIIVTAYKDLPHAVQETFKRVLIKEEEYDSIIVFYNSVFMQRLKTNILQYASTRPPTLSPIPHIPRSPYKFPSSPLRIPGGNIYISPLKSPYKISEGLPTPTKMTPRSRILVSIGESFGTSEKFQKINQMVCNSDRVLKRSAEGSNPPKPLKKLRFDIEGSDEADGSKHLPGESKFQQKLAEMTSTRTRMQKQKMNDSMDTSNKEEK
Protocol: The crude cell lysate of the GST-fusion proteins was prepared and purified according to the manufacture's protocol (Amersham/Pharmacia). [^35S]-methionine-labeled protein was produced by in vitro transcription/translation using the TNT T7-coupled reticulocyte lysate system (Promega). [^35S]-methionine-labeled protein and GST-fusion protein bound to glutathione sepharose 4B beads were incubated in 500 μl of HNE buffer (50 mM Hepes, pH 7.8, 150 mM NaCl, 1 mM EDTA, 1 mM DTT, 1% NP40, and 1× protease inhibitor mix (Complete: Roche)) at 4° C. for 1 hour. Beads were washed four times with HNE buffer, and then analyzed on an SDS-PAGE gradient gel (4-15%). For the detection of endogenous PRMT-2 interaction with RB, MEFs were lysed with WCL buffer (50 mM Hepes, pH 7.8, 400 mM NaCl, 2 mM EDTA, 1 mM DTT, 0.2% NP40, 10% Glycerol, 20 mM α-glycerophosphate, 5 mM NaF, 0.1 mM NaVO4, and 1× protease inhibitor mix). Then, 1 mg of whole cell extracts were incubated with HNE buffer without DTT and 3 μg of antibodies as indicated. The immune complexes were isolated using protein G beads, and washed four times with HNE buffer. The precipitated protein was boiled with SDS-loading buffer and resolved on SDS-PAGE. For immunoprecipitation of HA-tagged protein, transfected cells were lysed with RIPA buffer (phosphate buffer saline containing 1% NP40, 0.5% sodium deoxycholate, 0.1% SDS, and 1× Complete), and 100 μg of whole cell lysates were immunoprecipitated with anti-HA antibodies and washed in RIPA buffer. Western blot analysis was performed as described in Tanner et al. (1998). Circ Res, 82, 396-403.
To test whether PRMT family members interact with RB, S^35-labeled in vitro translated PRMT1, PRMT2, PRMT3, and PRMT4 (CARM1) were incubated with GST-RB fusion proteins or control GST, and co-precipitated labeled proteins were resolved by SDS-PAGE. […] An equal amount of GST-RB and GST were loaded in each lane, verified by Coomassie staining (FIG. 8B).

B1: PRMT2: human PRMT-2 polypeptide, SEQ ID NO:2, expressed from pVR1012 vector with HA-tag (protein, listed as Homo sapiens)
chain: MATSGDCPRSESQGEEPAECSEAGLLQEGVQPEEFVAIADYAATDETQLSFLRGEKILILRQTTADWWWGERAGCCGYIPANHVGKHVDEYDPEDTWQDEEYFGSYGTLKLHLEMLADQPRTTKYHSVILQNKESLTDKVILDVGCGTGIISLFCAHYARPRAVYAVEASEMAQHTGQLVLQNGFADIITVYQQKVEDVVLPEKVDVLVSEWMGTCLLFEFMIESILYARDAWLKEDGVIWPTMAALHLVPCSADKDYRSKVLFWDNAYEFNLSALKSLAVKEFFSKPKYNHILKPEDCLSEPCTILQLDMRTVQISDLETLRGELRFDIRKAGTLHGFTAWFSVHFQSLQEGQPPQVLSTGPFHPTTHWKQTLFMMDDPVPVHTGDVVTGSVVLQRNPVWRRHMSVALSWAVTSRQDPTSQKVGEKVFPIWR
modifications: HA tag
With B1 the “susceptibility to TNF-induced cell death” value [1] was “increased their susceptibility to TNF-induced cell death”, the E2F1-induced promoter activity ([2]; HeLa cells, in the presence of the E2F1 activator) was “repressed E2F1-induced promoter activity in a dose-dependent manner” and the E2F1 activity ([2]; Saos 2 cells (RB-deficient), without RB) was “did not repress E2F1 activity”. For the same molecule, the E2F repression ([2]; Saos 2 cells co-transfected with RB) was “E2F repression by PRMT2 in a dose-dependent manner was observed” and the “binding to RB” value [3] was “directly interacts with RB”.
